Common to all, as to details: both partners purified
For assay [1], the target named is T1, LBT-TPR2A (TPR2A domain of yeast Sti1 with an N-terminal lanthanide binding tag) (yeast, UniProt P15705 252-379).
T1 construct: TPR2A domain of Sti1, yeast, aa 252-379; Loaded with equimolar Tb3+ in the assay; also called LBT-TPR2A (Sti1); LBT-TRP2A; source: E. coli Rosetta (DE3) pLysS, purified (Ni-NTA)
T1 sequence (looked up): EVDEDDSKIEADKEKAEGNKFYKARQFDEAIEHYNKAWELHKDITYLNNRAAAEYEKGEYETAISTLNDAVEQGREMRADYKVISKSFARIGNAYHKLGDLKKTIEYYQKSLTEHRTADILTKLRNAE
The assay is described as follows: LRET (luminescence resonance energy transfer); titration: 20 µM LBT-TPR2A-Tb3+ complex with increasing EGFP-C90 (0-15 µM); normalized LRET Em510 nm/Em490 nm; Scatchard plot; three independent experiments.

The target in assay [2] is T2, LBT-TPR2A (TPR2A domain of human HOP, wild type, with an N-terminal lanthanide binding tag) (human, UniProt P31948 225-337).
T2 construct: TPR2A domain of HOP (STIP1), human, aa 225-337; Cloned into the XhoI site of pST96/LBT-MCS; Loaded with equimolar Tb3+ in the assay; also called LBT-TPR2A WT; TPR2A WT; source: E. coli Rosetta (DE3) pLysS, purified (Ni-NTA)
Put plainly: LRET (luminescence resonance energy transfer); equimolar mixture in solution of the LBT-tagged protein loaded with Tb3+ and the EGFP or TagRFP fusion protein (5 µM, or 25 µM for TagRFP-C70); 96-well black plates; excitation 280 nm, 100 µs delay, emission spectrum 450-600 nm.

In assay [3] the target is T3, LBT-TPR2A K229A (TPR2A domain of human HOP, point mutant K229A) (human, UniProt P31948 225-337, K229A).
T3 construct: TPR2A domain of HOP (STIP1), human, aa 225-337, with K229A; Loaded with equimolar Tb3+ in the assay; also called TPR2A mutant K229A; source: E. coli Rosetta (DE3) pLysS, purified (Ni-NTA)
The description is as above.

T2 sequence (P31948 225-337): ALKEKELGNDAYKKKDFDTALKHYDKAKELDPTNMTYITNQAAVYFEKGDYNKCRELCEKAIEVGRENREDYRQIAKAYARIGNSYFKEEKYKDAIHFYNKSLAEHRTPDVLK
T3 sequence (P31948 225-337 K229A): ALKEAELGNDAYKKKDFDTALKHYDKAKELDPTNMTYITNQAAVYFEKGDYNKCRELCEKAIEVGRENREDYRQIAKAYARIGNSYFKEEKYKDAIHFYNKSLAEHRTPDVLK

B1: EGFP-C90 (last 90 amino acids of human HSP90α fused to the C-terminus of EGFP) (domain or fragment)
chain: not shown
notes: HSP90α, human, the C-terminal 90 amino acids, ending with MEEVD; EGFP in the XhoI site and C90 in the BamHI site of pET15b; source: E. coli Rosetta (DE3) pLysS, purified (Ni-NTA); not shown: EGFP, N-terminal, kept
B1: the Kd (usually the constant that tells how readily two partners part at equilibrium) in assay [1] turned out to be 4.2 µM. The binding result in assay [2] and in assay [3] was “binds” in each case.

Values taken from paper PMC5809404, “Luminescence resonance energy transfer between genetically encoded donor and acceptor for protein-protein interaction studies in the molecular chaperone HSP70/HSP90 complexes” (Scientific Reports, 2018).
